Read-outs that look alike come from different tables or passages of the source.
T1: Human-NKP30-His (Kactus, cat: NKP-HM430) (human, UniProt O14931 19-138, limits assumed)
T1 construct: also called NKP30 protein; NKP30-his protein; not shown: His tag
T1 sequence (looked up): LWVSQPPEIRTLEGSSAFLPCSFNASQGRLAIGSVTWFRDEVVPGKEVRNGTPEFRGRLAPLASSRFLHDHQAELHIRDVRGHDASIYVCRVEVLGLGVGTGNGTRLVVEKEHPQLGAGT


How the values were obtained:
[1] = molecular target: T1, Human-NKP30-His (Kactus, cat: NKP-HM430); assay: ELISA: Human-NKP30-His coated, antibody titrated 3-fold from 10 µg/mL, HRP goat anti-human IgG-Fc, OD450-OD570
Procedure: (§1) Human-NKP30-His (Kactus, cat: NKP-HM430) was diluted to […] with PBS buffer at pH 7.4, added into the 96-well ELISA plate at 100 μL per well, coated overnight at 4° C., and blocked with 1% BSA blocking solution for 1 hour. The plate was washed 3 times with PBST, and the constructed antibodies were diluted to 10 μg/mL with 0.5% BSA sample diluent as the starting concentration, and then diluted by 3-fold gradient (11 gradients in total). A negative control (blank well and IgG1 isotype control) and a positive control were set, and the positive control was a NKP30 humanized antibody (sequence shown in SEQ ID No. 28), and incubated at 37° C. for 1 h at 100 μL per well. […] The absorbance value of each well in the 96-well plate was determined by selecting the wavelength of 450 nm and the reference wavelength of 570 nm on a multifunctional enzyme marker, and the absorbance value (OD)=OD₄₅₀ₙₘ−OD₅₇₀ₙₘ. The logarithm of the concentration of the constructed antibody was taken as the abscissa, and the measured absorbance value of each well was taken as the ordinate, and the Sigmoidaldose-response (Variable Slope) method (GraphPad Prism software, GraphPad Software, San Diego, California) was selected for nonlinear regression to obtain the binding curve of the target antibody to NKP30.

[2] = molecular target: T2, Human-GPC3-His (human, UniProt P51654 25-559, limits assumed); assay: ELISA: Human-GPC3-His coated at 0.5 µg/mL, antibody titrated 3-fold from 10 µg/mL, HRP goat anti-human IgG-Fc, OD450-OD570
T2 construct: Coated on the ELISA plate; also called GPC-3 protein; GPC3 protein; not shown: His tag
T2 sequence (P51654 25-559 limits assumed): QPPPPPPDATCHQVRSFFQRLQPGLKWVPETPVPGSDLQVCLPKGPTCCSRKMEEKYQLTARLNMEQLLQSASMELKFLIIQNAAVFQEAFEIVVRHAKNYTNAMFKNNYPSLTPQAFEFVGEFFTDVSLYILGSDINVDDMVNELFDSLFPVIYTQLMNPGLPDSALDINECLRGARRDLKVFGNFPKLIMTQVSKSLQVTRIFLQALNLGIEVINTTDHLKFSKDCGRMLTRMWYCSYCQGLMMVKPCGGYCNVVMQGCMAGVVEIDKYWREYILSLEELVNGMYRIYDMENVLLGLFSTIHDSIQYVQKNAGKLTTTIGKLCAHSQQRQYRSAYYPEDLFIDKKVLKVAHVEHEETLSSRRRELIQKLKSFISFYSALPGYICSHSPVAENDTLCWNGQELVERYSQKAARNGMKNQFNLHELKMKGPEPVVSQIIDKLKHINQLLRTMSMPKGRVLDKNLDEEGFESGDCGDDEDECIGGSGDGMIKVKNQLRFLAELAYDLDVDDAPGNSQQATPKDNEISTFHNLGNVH
Procedure: (§2) Human-GPC3-His was diluted to 0.5 μg/mL with PBS buffer at pH 7.4, added into the 96-well ELISA plate at 100 μL per well, coated overnight at 4° C., and blocked with 1% BSA blocking solution for 1 hour. The plate was washed 3 times with PBST, and the constructed antibody was diluted to 10 μg/mL with 0.5% BSA sample diluent as the starting concentration, and then diluted by 3-fold gradient (11 gradients in total) and incubated at 37° C. for 1 h at 100 μL per well. The plate was washed 3 times with PBST, and then HRP-labelled goat anti-human IgG-Fc was diluted with the sample diluent at 1:20000. 100 μL was added into each well, and incubated at room temperature for 1 hour. A negative control (blank well and IgG1 isotype control) and a positive control were set, and the positive control was a GPC-3 and CD3 bispecial antibody from the literature Hs, A, et al. “Engineering a bispecific antibody with a common light chain: Identification and optimization of an anti-CD3 epsilon and anti-GPC3 bispecific antibody, ERY974.” Methods 154 (2019): 10-20. (The GPC-3 and CD3 bispecial antibody sequence consists of SEQ ID No. 22, SEQ ID No. 23, and SEQ ID No. 24). The plate was washed 4 times with PBST, and 100 μL of TMB substrate was added into each well, and incubated at room temperature without light for 10 minutes. 100 μL of 1 M HCl solution was added into each well to terminate the color development reaction. The absorbance value of each well in the 96-well plate was determined by selecting the wavelength of 450 nm and the reference wavelength of 570 nm on a multifunctional enzyme marker, and the absorbance value (OD)=OD₄₅₀ₙₘ−OD₅₇₀ₙₘ. The logarithm of the concentration of the constructed antibody was taken as the abscissa, and the measured absorbance value of each well was taken as the ordinate, and the Sigmoidaldose-response (Variable Slope) method (GraphPad Prism software, GraphPad Software, San Diego, California) was selected for nonlinear regression to obtain the binding curve of the target antibody to the GPC-3 protein.

[3] = molecular target: T1, Human-NKP30-His (Kactus, cat: NKP-HM430); assay: ELISA: Human-NKP30-His coated, antibody titrated 3-fold from 10 µg/mL, HRP goat anti-human IgG-Fc, OD450-OD570; remark: listed apart in the source
Procedure: as §1

[4] = molecular target: T2, Human-GPC3-His; assay: ELISA: Human-GPC3-His coated at 0.5 µg/mL, antibody titrated 3-fold from 10 µg/mL, HRP goat anti-human IgG-Fc, OD450-OD570; remark: listed apart in the source
Procedure: as §2

[5] = molecular target: T1, Human-NKP30-His (Kactus, cat: NKP-HM430); assay: ELISA: Human-NKP30-His coated, antibody titrated 3-fold from 10 µg/mL, HRP goat anti-human IgG-Fc, OD450-OD570; remark: listed apart in the source
Procedure: (§3) Human-NKP30-His (Kactus, cat: NKP-HM430) was diluted to […] with PBS buffer at pH 7.4, added into the 96-well ELISA plate at 100 μL per well, coated overnight at 4° C., and blocked with 1% BSA blocking solution for 1 hour. The plate was washed 3 times with PBST, and the constructed antibodies were diluted to 10 μg/mL with 0.5% BSA sample diluent as the starting concentration, and then diluted by 3-fold gradient (11 gradients in total). A negative control (blank well and IgG1 isotype control) and a positive control were set, and the positive control was a NKP30 humanized antibody (sequence shown in SEQ ID No. 28), and incubated at 37° C. for 1 h at 100 μL per well. The plate was washed 3 times with PBST, and then HRP-labelled goat anti-human IgG-Fc was diluted with the sample diluent at 1:20000. 100 μL was added into each well, and incubated at room temperature for 1 hour. The plate was washed 4 times with PBST, and 100 μL of TMB substrate was added into each well, and incubated at room temperature without light for 10 minutes. 100 μL of 1 M HCl solution was added into each well to terminate the color development reaction. The absorbance value of each well in the 96-well plate was determined by selecting the wavelength of 450 nm and the reference wavelength of 570 nm on a multifunctional enzyme marker, and the absorbance value (OD)=OD₄₅₀ₙₘ−OD₅₇₀ₙₘ. The logarithm of the concentration of the constructed antibody was taken as the abscissa, and the measured absorbance value of each well was taken as the ordinate, and the Sigmoidaldose-response (Variable Slope) method (GraphPad Prism software, GraphPad Software, San Diego, California) was selected for nonlinear regression to obtain the binding curve of the target antibody to NKP30.

[6] = molecular target: T1, Human-NKP30-His (Kactus, cat: NKP-HM430); assay: as above; remark: listed apart in the source
Procedure: as §3

Row | EC50 (read off the curve) [1] [µg/mL] | EC50 (read off the curve) [2] [µg/mL] | EC50 (read off the curve) [3] [µg/mL] | EC50 (read off the curve) [4] [µg/mL] | EC50 (read off the curve) [5] [µg/mL] | EC50 (read off the curve) [6] [µg/mL] | Binder
1 | ~0.06 | ~0.01 |  |  |  |  | GN15-H (bispecific antibody, human IgG1, kappa, Trifunctional antibody against GPC-3 and NKP30 with IL-15 and IL-15Rα sushi between CH1 and CH2; also called constructed antibody GN15-H; multifunctional antibody) light: DVVMTQSPLSLPVTPGEPASISCRSSQSLVHSNRNTYLHWYLQKPGQSPQLLIYKVSNRFSGVPDRFSGSGSGTDFTLKISRVEAEDVGVYYCSQNTHVPPTFGQGTKLEIKRTVAAPSVFIFPPSDEQLKSGTASVVCLLNNFYPREAKVQWKVDNALQSGNSQESVTEQDSKDSTYSLSSTLTLSKADYEKHKVYACEVTHQGLSSPVTKSFNRGEC heavy 1: not shown heavy 2: QVQLVQSGAEVKKPGASVKVSCKASGYTFTDYEMHWVRQAPGQGLEWMGALDPKTGDTAYSQKFKGRVTLTADKSTSTAYMELSSLTSEDTAVYYCTRFYSYTYWGQGTLVTVSSASTKGPSVFPLAPSSKSTSGGTAALGCLVKDYFPEPVTVSWNSGALTSGVHTFPAVLQSSGLYSLSSVVTVPSSSLGTQTYICNVNHKPSNTKVDKKVEPKSCDKTHTCPPCPGGGGSGGGGSPALLLLLLLRPPATRGITCPPPMSVEHADIWVKSYSLYSRERYICNSGFKRKAGTSSLTECVLNKATNVAHWTTPSLKCIRDPALVHQRPAPPSTVTTAGVTPQPESLSPSGKEGGGGSGGGGSAPELLGGPSVFLFPPKPKDTLMISRTPEVTCVVVDVSHEDPEVKFNWYVDGVEVHNAKTKPREEQYNSTYRVVSVLTVLHQDWLNGKEYKCKVSNKALPAPIEKTISKAKGQPREPQVYTLPPSRDELTKNQVSLTCLVKGFYPSDIAVEWESNGQPENNYKTTPPVLDSDGSFFLASKLTVDKSRWQQGNVFSCSVMHEALHNHYTQKSLSLSPGK
2 |  |  | ~0.02 | ~0.03 |  |  | GN15-A (bispecific antibody, human IgG1, kappa, Trifunctional antibody against GPC-3 and NKP30 with IL-15 and IL-15Rα sushi between CH1 and CH2 of the two heavy chains; IgG1 knob/hole Fc; also called constructed antibody GN15-A; multifunctional antibody) light: EVQLVESGGGLVQPGGSLRLSCAASGITFSRSVMGWFRQAPGKLRELVAGITSDDNTDYADSVKGRFTISRDNSKNTLYLQMNSLRAEDTAVYYCNILPDSRLGWGQGTLVTVSSGGGGSGGGGSGGGGSDVVMTQSPLSLPVTPGEPASISCRSSQSLVHSNRNTYLHWYLQKPGQSPQLLIYKVSNRFSGVPDRFSGSGSGTDFTLKISRVEAEDVGVYYCSQNTHVPPTFGQGTKLEIKRTVAAPSVFIFPPSDEQLKSGTASVVCLLNNFYPREAKVQWKVDNALQSGNSQESVTEQDSKDSTYSLSSTLTLSKADYEKHKVYACEVTHQGLSSPVTKSFNRGEC heavy 1: not shown heavy 2: QVQLVQSGAEVKKPGASVKVSCKASGYTFTDYEMHWVRQAPGQGLEWMGALDPKTGDTAYSQKFKGRVTLTADKSTSTAYMELSSLTSEDTAVYYCTRFYSYTYWGQGTLVTVSSASTKGPSVFPLAPSSKSTSGGTAALGCLVKDYFPEPVTVSWNSGALTSGVHTFPAVLQSSGLYSLSSVVTVPSSSLGTQTYICNVNHKPSNTKVDKKVEPKSCDKTHTCPPCPGGGGSGGGGSPALLLLLLLRPPATRGITCPPPMSVEHADIWVKSYSLYSRERYICNSGFKRKAGTSSLTECVLNKATNVAHWTTPSLKCIRDPALVHQRPAPPSTVTTAGVTPQPESLSPSGKEGGGGSGGGGSAPELLGGPSVFLFPPKPKDTLMISRTPEVTCVVVDVSHEDPEVKFNWYVDGVEVHNAKTKPREEQYNSTYRVVSVLTVLHQDWLNGKEYKCKVSNKALPAPIEKTISKAKGQPREPQVYTLPPSRDELTKNQVSLTCLVKGFYPSDIAVEWESNGQPENNYKTTPPVLDSDGSFFLASKLTVDKSRWQQGNVFSCSVMHEALHNHYTQKSLSLSPGK
3 | ~0.03 |  | ~0.03 |  | ~0.03 | ~0.03 | NKP30 humanized antibody (antibody, V domains shown, detected with anti-human IgG-Fc) VH: EVQLVESGGGLVQPGGSLRLSCAASGITFSRSVMGWFRQAPGKLRELVAGITSDDNTDYADSVKGRFTISRDNSKNTLYLQMNSLRAEDTAVYYCNILPDSRLGWGQGTLVTVSS

— patent US20240218065A1 (SHENGHE CHINA BIOPHARMACEUTICAL, published 2024)
